According to patent publication US12521446B2, “Anti-CEACAM5 antibody drug conjugates” (Bristol-Myers Squibb Company, priority 2024, dated 2026):

T1: full-length human CEACAM5 (Homo sapiens, UniProt P06731, T210S)
T1 construct: The SPR kinetics against full-length human and cyno CEACAM5 were set up as follows
T1 sequence (P06731 35-702 T210S): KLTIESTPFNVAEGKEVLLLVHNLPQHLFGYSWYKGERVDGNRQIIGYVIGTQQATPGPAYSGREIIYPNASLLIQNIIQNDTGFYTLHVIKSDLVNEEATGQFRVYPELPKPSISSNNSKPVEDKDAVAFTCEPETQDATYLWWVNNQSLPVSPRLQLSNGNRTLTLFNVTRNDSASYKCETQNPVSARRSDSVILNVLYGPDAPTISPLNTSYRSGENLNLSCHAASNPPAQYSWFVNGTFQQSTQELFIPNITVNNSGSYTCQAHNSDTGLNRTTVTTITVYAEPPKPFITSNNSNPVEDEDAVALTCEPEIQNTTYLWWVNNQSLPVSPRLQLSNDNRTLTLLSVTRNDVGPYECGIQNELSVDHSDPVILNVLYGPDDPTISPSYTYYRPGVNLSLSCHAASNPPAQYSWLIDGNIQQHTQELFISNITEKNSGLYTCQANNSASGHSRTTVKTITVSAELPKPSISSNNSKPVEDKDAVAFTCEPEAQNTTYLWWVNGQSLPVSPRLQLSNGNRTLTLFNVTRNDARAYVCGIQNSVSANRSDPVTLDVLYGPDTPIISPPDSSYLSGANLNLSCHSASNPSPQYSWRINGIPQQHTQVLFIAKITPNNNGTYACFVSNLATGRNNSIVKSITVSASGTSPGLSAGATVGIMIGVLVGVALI

T2: HCT116-huCEACAM5 (Homo sapiens, UniProt P06731, T210S)
T2 construct: expressed in transfected cells; host or cells: HCT-116
T2 sequence (P06731 35-676 T210S): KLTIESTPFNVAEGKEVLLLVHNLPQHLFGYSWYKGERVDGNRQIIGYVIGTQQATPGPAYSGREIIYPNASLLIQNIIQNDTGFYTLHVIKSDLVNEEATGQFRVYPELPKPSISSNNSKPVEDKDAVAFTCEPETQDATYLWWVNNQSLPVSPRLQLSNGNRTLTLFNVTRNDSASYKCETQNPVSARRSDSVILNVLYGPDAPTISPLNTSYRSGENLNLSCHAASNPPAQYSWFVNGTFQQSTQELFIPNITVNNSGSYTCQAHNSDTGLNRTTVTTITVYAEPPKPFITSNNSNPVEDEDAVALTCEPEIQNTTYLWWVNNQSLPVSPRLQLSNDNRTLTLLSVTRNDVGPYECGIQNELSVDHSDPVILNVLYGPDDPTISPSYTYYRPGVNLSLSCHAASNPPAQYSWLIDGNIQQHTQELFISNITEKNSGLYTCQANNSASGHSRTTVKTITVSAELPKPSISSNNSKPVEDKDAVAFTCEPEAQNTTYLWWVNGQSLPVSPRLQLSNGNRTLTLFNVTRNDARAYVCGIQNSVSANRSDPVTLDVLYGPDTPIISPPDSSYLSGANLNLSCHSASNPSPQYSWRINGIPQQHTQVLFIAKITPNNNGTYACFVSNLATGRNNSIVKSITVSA


Tests used:
MKN45 = assay: Internalization of progeny antibodies (Incucyte, pHrodo red), Example 9; type: cell-based; conditions: hIgG1.3 progeny, 25 nM mAb, Table 13A
Procedure: (§1) Antibodies were evaluated for internalization using HCT-116-huCEACAM5, HCT-116-cyCEACAM5, and MKN45 cell lines.
The MKN45 or Ls174T cells were seeded at 10K cells/well (50 uL).
(§2) Cell lines were first analyzed for cell density and viability using a Vi-cell viability machine. The cell lines were diluted to 0.2E6 vc/mL in growth media, and a volume (50 uL) of each was dispensed to a flat-bottom 96-well plate to achieve cell counts of 10K cells/well. Ls174T media included MEM with 10% HI-FBS and 1% pen/strep. MKN45 media included RPMI (ATCC modification) with 10% HI-FBS and 1% pen/strep. HCT-116 media included McCoy's 5a with 10% HI-FBS, 1% pen/strep, and 6 μg/mL Blasticidin. Cells were allowed to adhere to wells of the 96-well plate (Corning Cat. No. 3595) at 37° C./5% CO2 for approximately 4 hours.
(§3) Each test mAb and control mAb was labeled by first pre-mixing the respective antibody with a pHrodo red (Fab conjugated to pH-sensitive; Thermo cat #Z25612) secondary reagent at a 3:1 dye:mAb molar ratio. A series of dilutions were prepared at 2× target concentration in growth media. […]
(§4) Coated plates contacted with the labeled mAbs were incubated at 37° C. for 30 minutes. Each plate was then read using an Incucyte apparatus, which collected images from the red and phase channels [10× objective; 3 images/well] for a 24-hour duration, with reads of plates every 30 minutes.

full-length cyno CEACAM5 = assay: SPR kinetics of progeny antibodies (BIACORE), Example 8; type: binding, cynomolgus; conditions: hIgG1.3f progeny antibodies, Table 12A; for Kd: read-out: cyCEACAM5 KD
Chain of full-length cyno CEACAM5 (as listed by the source): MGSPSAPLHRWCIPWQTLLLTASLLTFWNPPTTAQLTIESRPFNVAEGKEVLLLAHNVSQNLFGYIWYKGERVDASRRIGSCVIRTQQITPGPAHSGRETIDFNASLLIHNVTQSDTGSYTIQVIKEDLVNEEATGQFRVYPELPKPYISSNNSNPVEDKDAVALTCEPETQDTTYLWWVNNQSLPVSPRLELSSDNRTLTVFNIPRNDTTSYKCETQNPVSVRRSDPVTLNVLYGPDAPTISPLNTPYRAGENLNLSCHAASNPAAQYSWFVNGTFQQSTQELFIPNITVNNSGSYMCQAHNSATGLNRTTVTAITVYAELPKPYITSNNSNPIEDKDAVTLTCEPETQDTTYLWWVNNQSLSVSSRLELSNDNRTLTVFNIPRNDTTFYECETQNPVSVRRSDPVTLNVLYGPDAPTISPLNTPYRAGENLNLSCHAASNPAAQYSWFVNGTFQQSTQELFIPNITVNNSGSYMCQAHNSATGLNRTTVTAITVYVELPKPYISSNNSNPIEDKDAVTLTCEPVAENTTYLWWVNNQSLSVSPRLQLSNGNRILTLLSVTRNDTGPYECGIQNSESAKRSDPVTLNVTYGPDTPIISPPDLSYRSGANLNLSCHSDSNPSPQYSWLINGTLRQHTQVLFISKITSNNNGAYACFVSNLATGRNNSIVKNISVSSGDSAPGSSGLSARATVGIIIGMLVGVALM
Text: (§5) Antibody genes with single amino acid substitutions and combinations of substitutions were synthesized in IgG expression vectors, transiently transfected into HEK cells, and purified via Protein A. In addition, the framework germline reversions described above were also incorporated into the sequences of the progeny. Purified IgG1.3 CEACAM5 mAb clones were characterized using the BIACORE® for high-throughput SPR-based monoclonal characterization.
(§6) The BIACORE® instrument was primed with 1×HBSP+ running buffer (Cytiva catalog no.BR100671). The CM5 chip (Cytiva catalog no. 29149604) was equilibrated to room temperature, and the BIACORE® instrument was re-primed. A human antibody Fc capture kit (Cytiva catalog no. 29234600) was utilized for this analysis. The human antibody Fc capture reagent was immobilized to both flow cells in all 8 flow channels of the CM5 chip via amine-coupling using the following conditions. Immobilization was performed at a temperature of 25° C. The anti-human Fc capture reagent was diluted to a concentration of 25 μg/mL in acetate pH5 buffer. The chip surface was activated by injecting a mixture of 1-ethyl-3-(-3-dimethylaminopropyl) carbodiimide hydrochloride (EDC) and N-hydroxy succinimide (NHS) for 420 seconds at a rate of 10 microliters per minute (uL/min). A concentration (25 ug/mL) of anti-human Fc capture reagent was then injected on the surface for 420 seconds at a rate of 10 uL/min. The remaining chip surface was blocked by injecting ethanolamine for 420 seconds at a rate of 10 uL/min.
(§7) The SPR kinetics against full-length human and cyno CEACAM5 were set up as follows. The antibody capture was performed by diluting the antibodies to a concentration of 10 nM in HBSP+ buffer. The 10 nM mAbs were captured for 20 seconds at 5 uL/min to achieve capture levels of approximately 100RU. Analyte binding was performed by first making a titration series of full-length human and cyno CEACAM5 that were prepared (from 500 nM-0.23 nM) with three-fold dilutions in HBSP+ buffer. The association rate was 180 seconds at 30 uL/min. The dissociation rate was 600 seconds at 30 uL/min. Regeneration was performed using two injections of 3M magnesium chloride MgCl2 for 30 seconds at 30 uL/min. A data fit was performed using a 1:1 binding model with global Rmax. Rmax reflects the maximal response when all ligand is occupied.

HCT116-cyCEACAM5 = assay: Internalization of progeny antibodies (Incucyte, pHrodo red), Example 9; type: cell-based, cynomolgus; conditions: hIgG1.3 progeny, 25 nM mAb, Table 13A
Chain of HCT116-cyCEACAM5 (as listed by the source): as above
Procedure: as §1, §2
as §3, with “media. The final mAb target concentration was 25 nM.” for “media.”
Coated plates contacted with the labeled mAbs were incubated at 37° C. for 30 minutes. Each plate was then read using an Incucyte apparatus, which collected images from the red and phase channels [10× objective; 3 images/well] for a 24-hour duration, with reads of plates every 30 minutes. […]

[1] = target: T1, full-length human CEACAM5; assay: SPR kinetics of progeny antibodies (BIACORE), Example 8; type: binding; conditions: hIgG1.3f progeny antibodies, Table 12A
Text: as §5, §6, §7

HCT116-huCEACAM5 = target: T2, HCT116-huCEACAM5; assay: Internalization of progeny antibodies (Incucyte, pHrodo red), Example 9; type: cell-based; conditions: hIgG1.3 progeny, 25 nM mAb, Table 13A
Procedure: as §1, §2
as §3, with “media. The final mAb target concentration was 25 nM.” for “media.”
as §4

| Kd (full-length cyno CEACAM5) [nM] | huCEACAM5 ka [1] [M⁻¹ s⁻¹] | huCEACAM5 kd [1] [s⁻¹] | HCT116-huCEACAM5 red/phase AUC (internalization) (HCT116-huCEACAM5) | Molecule | MKN45 24 hr red/phase AUC (internalization) (MKN45) | cyCEACAM5 ka (full-length cyno CEACAM5) [M⁻¹ s⁻¹] | cyCEACAM5 kd (full-length cyno CEACAM5) [s⁻¹] | HCT116-cyCEACAM5 red/phase AUC (internalization) (HCT116-cyCEACAM5) |
| --- | --- | --- | --- | --- | --- | --- | --- | --- |
| 21.7 | 79600 | 0.00171 | 1.05 | MBP007: hIgG1.3f progeny of MBN001; VH SEQ ID NO: 73, VL SEQ ID NO: 74 (antibody, V domains shown) VH: QVQLVESGGGVVQPGRSLRLSCAASGIYFSSHGMHWVRQAPGKGLEWVTFISYDGSYKSYVDSVKGRFTISRDNSKNTLYLQMNSLRAEDTAVYYCATGLTGTGANDIWGQGTMVTVSS VL: EIVLTQSPGTLSLSPGERATLSCRASQSVSSSYLAWYQQKPGQAPRLLIYGASSRATGIPDRFSGSGSGTDFTLTISRLEPEDFAVYYCQQNKPSPYTFGQGTKLEIK | 3.28 | 42700 | 0.000924 | 1.80 |
| 20.8 | 50000 | 0.00102 | 1.00 | MBP010: hIgG1.3f progeny of MBN001; VH SEQ ID NO: 79, VL SEQ ID NO: 80 (antibody, V domains shown) VH: QVQLVESGGGVVQPGRSLRLSCAASGITFSSHGMHWVRQAPGKGLEWVTFISYDSSYKSYVDSVKGRFTISRDNSKNTLYLQMNSLRAEDTAVYYCATGLTGTGAFDIWGQGTMVTVSS VL: EIVLTQSPGTLSLSPGERATLSCRASQSVSSSYLAWYQQKPGQAPRLLIYGASSRATGIPDRFSGSGSGTDFTLTISRLEPEDFAVYYCQQNKRSPYTFGQGTKLEIK | 3.11 | 34000 | 0.000706 | 2.55 |
